# Experiment: soluble on expression in E. coli; label from the status in PepcDB or PDB records
row,Sequence,soluble on expression in E. coli
1,GPGSMVVKDISLADWGRKELDIAETEMPGLMAAREEFGKSQPLKGARISGSLHMTIQTAVLIETLKVLGAEVRWASCNIFSTQDHAAAAIAATGTPVFAVKGETLEEYWTYTDQIFQWPDGEPSNMILDDGGDATMYILIGARAEAGEDVLSNPQSEEEEVLFAQIKKRMAATPGFFTKQRAAIKGVTEETTTGVNRLYQLQKKGLLPFPAINVNDSVTKSKFDNKYGCKESLVDGIRRGTDVMMAGKVAVVCGYGDVGKGSAQSLAGAGARVKVTEVDPICALQAAMDGFEVVTLDDAASTADIVVTTTGNKDVITIDHMRKMKDMCIVGNIGHFDNEIQVAALRNLKWTNVKPQVDLIEFPDGKRLILLSEGRLLNLGNATGHPSFVMSASFTNQVLGQIELFTRTDAYKNEVYVLPKHLDEKVARLHLDKLGAKLTVLSEEQAAYIGVTPQGPFKSEHYRY,soluble
2,GPGSMWRITRLCCKQLIRDESLVSLPPAVHRLEVYRNAVSVDCEERICAELGLLLQREGHTAFAEGSTPQQKIVKHTYLELHGAHKDFTEVKSFQRKETRRLPGLLWSPTLVSWMNEVVPRVRVFPVGVMPDTARVVEHNMTGYEMHMEHPTVGCSFLYLSLLSDTVLTFDDEATGRYGEVFLPQRALMCCSGEIRWGWRFGEQSREVHTFVNASGVRRVVEPDLRLSVQLWKFTPQLLDARLLQDRVEESMKQREAEESNEVVETIAVDRKKNEEEHKGSASSHALFSALAEKGASGTGPLGGEYVEGRTQACKGVEGKSMTMEDIGRDYNTYKQQFQNVHGVLQEMKALQDAGQPINDMWLRKRILDGQKDDNHDAQDGFDPNDVEGTWDRVDAKARFYKARLKGMDYDGTANSNSSMPDVTEDAPLDMKKTIQKIAPLVKDGDKILASLPCGQ,not soluble
3,GPGYNEPMAASDEVNLIESRTVVPLNTWVLISNFKVAYNILRRPDGTFNRHLAEYLDRKVTANANPVDGVFSFDVLIDRRINLLSRVYRPAYADQEQPPSILDLEKPVDGDIVPVILFFHGGSFAHSSANSAIYDTLCRRLVGLCKCVVVSVNYRRAPENPYPCAYDDGWIALNWVNSRSWLKSKKDSKVHIFLAGDSSGGNIAHNVALRAGESGIDVLGNILLNPMFGGNERTESEKSLDGKYFVTVRDRDWYWKAFLPEGEDREHPACNPFSPRGKSLEGVSFPKSLVVVAGLDLIRDWQLAYAEGLKKAGQEVKLMHLEKATVGFYLLPNNNHFHNVMDEISAFVNAE,soluble
4,GPHMASAEEKLEKKLELDPNCKEPLQVLPPTVVDQIRLWQLELDRVITYEGSLYSDFETSQEYNLLSKYAQDIGVLLWKDDKKKKFFISKEGNSQVLDFAKRKLKKKQ,soluble
5,GPLGSDFPQHSQHVLEQLNQQRQLGLLCDCTFVVDGVHFKAHKAVLAACSEYFKMLFVDQKDVVHLDISNAAGLGQVLEFMYTAKLSLSPENVDDVLAVATFLQMQDIITACHALKSLA,soluble
6,GPQDPYEINLMEELTLKGVTQYYAYVTERQKVHCLNTLFSRLQINQSIIFCNSSQRVELLAKKISQLGYSCFYIHAKMRQEHRNRVFHDFRNGLCRNLVCTDLFTRGIDIQAVNVVINFDFPKLAETYLHRIGRSGRFGHLGLAINLITYDDRFNLKSIEEQLGTEIKPIPSNIDKSLYVAEYHSEPVEDEKP,soluble
7,GPVDEVSFHSVVQQLKARQQATDEQLEELQEAFAKVQERNSVFSDWLKISAMLCAATLALSQVVKMAKAVKQMVKPDLVRVQLDEQEQGPYNETARVKPKTLQLLDIQGPNPVMDFEKYVAKHVTAPIGFVYPTGVSTQTCLLVRGRTLVVNRAMAESDWTSIVVRGVTHARSTVKILAIAKAGKETDVSFIRLSSGPLFRDNTSKFVKAGDVLPTGAAPVTGIMNTDIPMMYTGTFLKAGVSVPVETGQTFNHCIHYKANTRKGWSGSALLADLGGSKKILGIHSAGSMGIAAASIVSQEMIRAVVNAFEPQ,soluble
8,GQDRSPIETQNVETVLRLFDEGWGAQDGWRDVWRETMTPGFRSIFHSNQAVEGIEQAIAFNAVLFEGFPRLEVVVENVTVEGDNVVVQARLTGAQDGPFLGVPPSGQMVDVPDVTLFTLADGQVIEMRYFTDLLAVMTAISAPPEN,soluble
9,GQHSLQYFHTAVSRPGLGEPWFISVGYVDDTQFVRFDSDAENPRMEPRARWMEQEGPEYWERETQIAKGHEQSFRGSLRTAQSYYNQSKGGSHTLQWMYGCDMGSDGRLLRGYLQFAYEGRDYIALNEDLKTWTAVDMAAQITRRKWEQAGIAEKDQAYLEGTCMQSLRRYLELGKETLLRTDPPKAHVTHHPRSYGAVTLRCWALGFYPADITLTWQLNGEELTQDMELVETRPAGDGTFQKWASVVVPLGKEQNYTCHVNHEGLPEPLTLRW,soluble

# — the DeepSol protein solubility set
